# Assay results reported in PMC7925596, “Exploring targeting peptide-shell interactions in encapsulin nanocompartments” (Scientific Reports, 2021).
# B1: Thermotoga maritima encapsulin (T1 encapsulin shell) (natural protein, T. maritima)
# chain: MEFLKRSFAPLTEKQWQEIDNRAREIFKTQLYGRKFVDVEGPYGWEYAAHPLGEVEVLSDENEVVKWGLRKSLPLIELRATFTLDLWELDNLERGKPNVDLSSLEETVRKVAEFEDEVIFRGCEKSGVKGLLSFEERKIECGSTPKDLLEAIVRALSIFSKDGIEGPYTLVINTDRWINFLKEEAGHYPLEKRVEECLRGGKIITTPRIEDALVVSERGGDFKLILGQDLSIGYEDREKDAVRLFITETFTFQVVNPEALILLKF
# notes: encapsulin shell protein of Thermotoga maritima, T1 icosahedral shell, 24 nm, 60 subunits; Cloned into pBAD/HisA cut with NcoI and XhoI; also called T. maritima encapsulin protein; source: E. coli One shot BL21 (DE3) Star, pBAD/HisA, L-arabinose induced; purified as assembled particles (PEG-8000 precipitation, SEC, anion exchange); copies: 60
# How the values were obtained:
# [1] = target: B1; test: bulk fluorescence of purified encapsulin particles (loading percentage); particles loaded in E. coli and purified; 15 ug/mL in 20 mM Tris, 100 mM NaCl, pH 8 with 1 mg/mL BSA; plate reader Ex 500 nm, Em 530 nm, 20 C; loading = percentage of occupied TP binding sites (T1: 60, T3: 180), mNeonGreen standard curve; triplicates; settings: partners not purified
# [2] = target: T1, Myxococcus xanthus encapsulin (T3 encapsulin shell) (M. xanthus, UniProt Q1D6H4 1-287); test: as above; settings: partners not purified
# T1 construct: encapsulin shell protein of Myxococcus xanthus, T3 icosahedral shell, 32 nm, 180 subunits; Cloned into pBAD/HisA cut with NcoI and XhoI; also called M. xanthus encapsulin protein; source: E. coli One shot BL21 (DE3) Star, pBAD/HisA, L-arabinose induced; purified as assembled particles (PEG-8000 precipitation, SEC, anion exchange); copies: 180
# T1 sequence (Q1D6H4 whole entry): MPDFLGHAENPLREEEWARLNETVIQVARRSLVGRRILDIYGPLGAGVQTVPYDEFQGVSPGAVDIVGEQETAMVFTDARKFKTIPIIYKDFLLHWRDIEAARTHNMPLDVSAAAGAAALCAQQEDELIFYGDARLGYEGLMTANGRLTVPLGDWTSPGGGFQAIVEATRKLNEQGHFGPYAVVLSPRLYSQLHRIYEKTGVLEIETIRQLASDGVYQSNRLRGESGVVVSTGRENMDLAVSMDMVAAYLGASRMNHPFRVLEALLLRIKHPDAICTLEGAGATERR
# [3] = target: the molecule itself; test: negative stain transmission electron microscopy; purified particles, 1 mg/mL in low salt buffer, uranyl formate stain, 80 keV
cargo proteins per shell [1],Binder,further results
~2 cargo proteins per shell,"DGSLGIGSLKG (consensus targeting peptide found in T1 encapsulin systems; The targeting peptide is at the C-terminus of mNeonGreen; also called mNeonGreenTP (T1 consensus TP); T1 consensus TP; source: E. coli One shot BL21 (DE3) Star, pCDF-Duet1, IPTG induced before encapsulin; co-purified with encapsulin particles; not shown: mNeonGreen, N-terminal, kept) [mNeonGreen C-terminally fused to the T1 consensus targeting peptide]",
,"PLTVGSLRRGG (native 11-residue targeting peptide of the M. xanthus (T3) encapsulin system; The targeting peptide is at the C-terminus of mNeonGreen; also called mNeonGreenTP (native T3 TP); native T3 TP; source: E. coli One shot BL21 (DE3) Star, pCDF-Duet1, IPTG induced before encapsulin; co-purified with encapsulin particles; not shown: mNeonGreen, N-terminal, kept) [mNeonGreen C-terminally fused to the native T3 targeting peptide]",cargo proteins per shell [2]: ~45 cargo proteins per shell
~2 cargo proteins per shell,"NTGGDLGIRK (native targeting peptide of the T. maritima (T1) encapsulin system, from the C-terminus of the native cargo protein; The targeting peptide is at the C-terminus of mNeonGreen; also called mNeonGreenTP (native T1 TP); native T1 TP; source: E. coli One shot BL21 (DE3) Star, pCDF-Duet1, IPTG induced before encapsulin; co-purified with encapsulin particles; not shown: mNeonGreen, N-terminal, kept) [mNeonGreen C-terminally fused to the native T1 targeting peptide]",
,B1,binding result [3]: binds
